Read-outs that look alike come from different tables or passages of the source.
Assays:
[1] = biological target: T1, Recombinant human IL-17A/F (rhIL-17A/F), R&D System Cat No.5194-IL/CF (human, UniProt Q16552 20-155; Q96PD4 31-163, limits assumed); experiment: cell-based or functional assay
[2] = biological target: T2, Recombinant human IL-17A (rhIL-17A), R&D Systems Cat.No.317-ILB (human, UniProt Q16552 20-155, limits assumed); experiment: cell-based or functional assay
[3] = biological target: Cyno IL-17A (cynomolgus, UniProt A0A2K5TTB0 24-155); experiment: cell-based or functional assay
Cyno IL-17A, sequence (A0A2K5TTB0 entry or part of it): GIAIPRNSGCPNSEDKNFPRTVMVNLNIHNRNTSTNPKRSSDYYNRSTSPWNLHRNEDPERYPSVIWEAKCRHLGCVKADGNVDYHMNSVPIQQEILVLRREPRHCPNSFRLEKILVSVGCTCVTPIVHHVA

[4] = biological target: T3, Human IL-17A (hIL-17A), expressed in HEK293E (human, UniProt Q16552 24-155); experiment: SPR (Biacore X100), antibody captured on the chip, IL-17A as analyte
T3 sequence (Q16552 24-155 limits assumed): as the sequence (A0A2K5TTB0 entry or part of it) above, with A3T, S8P, S34N, V77I, K78N, R104P counted along it
Experimental: (§1) 2. Binding kinetics Test: FC1 (Flow cell 1) was used as the reference channel, FC2 (Flow cell 2) was used as the sample channel, and murine or humanized control antibody or the antibody of the present invention was captured in the FC2 channel at 300RU, followed by the injection of different concentrations of IL-17 (including hIL-17A, MuIL-17, Rat IL-17). Cycle conditions were: injecting analytes into all FC channels at 30 μl/min for 3min, dissociation for 20 min, injecting 10 mM Glycine, pH 1.5, for 60 s (at rate of 10 μl/min) for surface regeneration. The difference between the signal with captured antibody and the signal without captured antibody was calculated using Biacore X100 evaluation software ver 2.0 (Biacore), and the running buffer was 10 mM Hepes, […], 3 mM EDTA, 0.05% Tween-20.
(§2) 2. Humanized IL-17 antibodies obtained from Example 2 were tested using the above method, and the results were as follows: […]

[5] = biological target: T4, Mouse IL-17A (Mu IL-17A) (mouse, UniProt Q62386 26-158); experiment: SPR (Biacore X100), antibody captured on the chip, mouse IL-17 as analyte
T4 sequence (looked up): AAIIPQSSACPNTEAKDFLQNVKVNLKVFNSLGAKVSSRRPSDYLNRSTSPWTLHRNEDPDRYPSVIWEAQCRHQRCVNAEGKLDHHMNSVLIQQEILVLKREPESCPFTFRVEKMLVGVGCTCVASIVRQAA
Experimental: as §1, §2

[6] = biological target: T5, Rat IL-17A (rat, UniProt Q61453 18-150, limits assumed); experiment: SPR (Biacore X100), antibody captured on the chip, rat IL-17 as analyte
T5 sequence (looked up): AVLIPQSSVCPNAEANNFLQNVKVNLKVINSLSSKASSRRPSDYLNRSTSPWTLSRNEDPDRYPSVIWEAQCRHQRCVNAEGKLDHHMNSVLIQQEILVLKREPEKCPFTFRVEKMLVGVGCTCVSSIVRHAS
Experimental: as §1, §2

[7] = biological target: T6, biotin-labeled IL-17A (human, UniProt Q16552 24-155, limits assumed, biotin-labeled (sites not given)); experiment: receptor blocking ELISA (RBA): antibody titrated against biotin-labeled IL-17A binding to captured IL-17RA-Fc
T6 construct: also called huIL-17
T6 sequence (Q16552 24-155 limits assumed): as the sequence (A0A2K5TTB0 entry or part of it) above, with A3T, S8P, S34N, V77I, K78N, R104P counted along it
Experimental: 6. The positive controls, Lilly mAb and Novartis mAb, or antibodies of the present invention were diluted at a 1:5 ratio, with an initial concentration of 40 μg/ml. mIgG was diluted using the same method. 50 μl of diluted positive control, murine antibody of the present invention, or mIgG were added to each well, and, 50 μof 0.2nM biotin-labeled IL-17A were added to the wells containing diluted positive control or the antibody of the present invention, mixed gently and the plates were thermostatically incubated at 37° C. for 1 h.
7. The plates were washed with PBST three times; 8. 100 μl of HRP-labeled streptavidin complex (1:5000) were added to each well, and the plates were thermostatically incubated at 37° C. for 1 h;

[8] = biological target: T3, Human IL-17A (hIL-17A), expressed in …; experiment: SPR (Biacore X100), antibody captured on the chip, IL-17A as analyte; remark: listed apart in the source
Experimental: as §1
1. Hybridomas obtained in Example 1 were tested using the above method, and the results were as follows: […]

[9] = biological target: T3, Human IL-17A (hIL-17A), expressed in …; experiment: indirect ELISA, hIL-17A or hIL-17A/F on streptavidin plates, OD450 against Lilly mAb and Novartis mAb
Experimental: 6. The positive controls, Lilly mAb and Novartis mAb, or murine mAbs antibodies of the present invention were titrated at a 1:5 dilution, with an initial concentration of 1 μg/ml. 100 μl of diluted positive control or murine antibody of the present invention were added to each well, and the plates were thermostatically incubated at 37° C. for 1 h. Each concentration was tested in duplicate;
10. The OD value at a wavelength of 450 nm was read on an ELISA microplate reader (Molecular Devices, Spectra Max).
11. The OD values of the murine mAb antibodies were compared to those of the positive controls. Monoclonal cell lines with a ratio greater than 1, including IL17-mAb049, were screened.

[10] = biological target: T1, Recombinant human IL-17A/F …; experiment: cell-based or functional assay; remark: listed apart in the source
[11] = biological target: T2, Recombinant human IL-17A (rhIL-17A), …; experiment: cell-based or functional assay; remark: listed apart in the source

T2 sequence (Q16552 20-155 limits assumed): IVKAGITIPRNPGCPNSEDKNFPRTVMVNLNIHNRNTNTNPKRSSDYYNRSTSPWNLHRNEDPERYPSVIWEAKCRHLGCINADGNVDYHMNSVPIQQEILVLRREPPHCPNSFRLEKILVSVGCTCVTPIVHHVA
T1 sequence (Q16552 20-155 limits assumed, chain 1 of 2): as the sequence (Q16552 20-155 limits assumed) above
T1 sequence (Q96PD4 31-163 limits assumed, chain 2 of 2): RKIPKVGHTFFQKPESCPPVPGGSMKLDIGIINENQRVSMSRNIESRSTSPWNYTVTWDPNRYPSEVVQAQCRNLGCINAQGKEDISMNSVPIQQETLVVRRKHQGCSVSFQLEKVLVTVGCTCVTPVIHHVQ

B1: Hu049-18 (antibody, V domains shown)
VH: EVQLVQSGAEVKKPGASVKVSCKASGYTFTDYEVHWVRQAPGQGLEWMGVIDPGTGGVAYNQKFEGRVTMTADTSTSTAYMELRSLRSDDTAVYYCTRYSLFYGSSPYAMDYWGQGTLVTVSS
VL: EIVLTQSPDFQSVTPKEKVTITCSASSSVNYMHWFQQKPDQSPKLWIYRTSNLASGVPSRFSGSGSGTDYTLTINSLEAEDAATYYCQQRSSYPWTFGQGTKLEIKR
notes: Humanized mAb049
- huIL-17A/F Bioassay (IC50, nM) [1]: 0.684 nM
- huIL-17 Bioassay (IC50, nM) [2]: 0.04 nM
- Cyno IL-17A (bioassay IC50) [3]: 0.033 nM
- Kd [4]: < 0.001 nM
- Kd [5]: 0.0681 nM
- Kd [6]: 0.477 nM

B2: Hu049-17 (antibody, V domains shown)
VH: EVQLVQSGAEVKKPGASVKVSCKASGYTFTDYEVHWVRQAPGQGLEWMGVIDPGTGGVAYNQKFEGRVTMTTDTSTSTAYMELRSLRSDDTAVYYCTRYSLFYGSSPYAMDYWGQGTLVTVSS
VL: EIVLTQSPDFQSVTPKEKVTITCSASSSVNYMHWFQQKPDQSPKLWIYRTSNLASGVPSRFSGSGSGTDYTLTINSLEAEDAATYYCQQRSSYPWTFGQGTKLEIKR
notes: Humanized mAb049
- huIL-17A/F Bioassay (IC50, nM) [1]: 0.406 nM
- huIL-17 Bioassay (IC50, nM) [2]: 0.061 nM
- Cyno IL-17A (bioassay IC50) [3]: 0.03 nM
- Kd [4]: < 0.001 nM
- Kd [5]: 0.137 nM
- Kd [6]: 1.06 nM

B3: Hu049-20 (antibody, V domains shown)
VH: EVQLVQSGAEVKKPGASVKVSCKASGYTFTDYEVHWVRQAPGQGLEWIGVIDPGTGGVAYNQKFEGRATLTADDSTNTAYMELRSLRSDDTAVYYCTRYSLFYGSSPYAMDYWGQGTLVTVSS
VL: EIVLTQSPDFQSVTPKEKVTITCSASSSVNYMHWFQQKPDQSPKLWIYRTSNLASGVPSRFSGSGSGTDYTLTINSLEAEDAATYYCQQRSSYPWTFGQGTKLEIKR
- huIL-17A/F Bioassay (IC50, nM) [1]: 0.674 nM
- huIL-17 Bioassay (IC50, nM) [2]: 0.065 nM
- Cyno IL-17A (bioassay IC50) [3]: 0.028 nM

B4: Hu049-19 (antibody, V domains shown)
VH: EVQLVQSGAEVKKPGASVKVSCKASGYTFTDYEVHWVRQAPGQGLEWIGVIDPGTGGVAYNQKFEGRVTMTADTSTSTAYMELRSLRSDDTAVYYCTRYSLFYGSSPYAMDYWGQGTLVTVSS
VL: EIVLTQSPDFQSVTPKEKVTITCSASSSVNYMHWFQQKPDQSPKLWIYRTSNLASGVPSRFSGSGSGTDYTLTINSLEAEDAATYYCQQRSSYPWTFGQGTKLEIKR
notes: Humanized mAb049
- huIL-17A/F Bioassay (IC50, nM) [1]: 0.411 nM
- huIL-17 Bioassay (IC50, nM) [2]: 0.066 nM
- Cyno IL-17A (bioassay IC50) [3]: 0.039 nM
- Kd [4]: 0.00268 nM
- Kd [5]: 0.0771 nM
- Kd [6]: 0.06 nM

B5: IL17-mAb049 (antibody, V domains shown)
VH: HVQLQQSGADLVRPGASVTLSCKASGYIFTDYEVHWVKQTPVHGLEWIGVIDPGTGGVAYNQKFEGKATLTADDSSNTAYMELRSLTSEDSAVYYCTRYSLFYGSSPYAMDYWGQGTSVTVSS
VL: QIVLTQSPAIMSASPGEKVTITCSASSSVNYMHWFQQKPGTSPKLWIYRTSNLASGVPVRFSGSGSGTSYSLTISRMEAEDAATYYCQQRSSYPWTFGGGTNLEIK
notes: Murine monoclonal antibody from a hybridoma; also called murine IL-17A mouse antibody mAb049
- IC50 [7]: 0.07 nM
- Kd [8]: 0.0262 nM
- ratio of OD value to that of the positive controls [9]: 1
- huIL-17A/F Bioassay (IC50, nM) [10]: 0.46 nM
- huIL-17 Bioassay (IC50, nM) [11]: 0.04 nM
